This passage reports stoichiometry N results from publication PMC2756758.

“And” between values parts separate entries of the source, which are not always exact repeats. Identical values can stand only once.

In the test the target is T1, Myc-ArPIKfyve^WT (human), Q08AM6.
T1 chain: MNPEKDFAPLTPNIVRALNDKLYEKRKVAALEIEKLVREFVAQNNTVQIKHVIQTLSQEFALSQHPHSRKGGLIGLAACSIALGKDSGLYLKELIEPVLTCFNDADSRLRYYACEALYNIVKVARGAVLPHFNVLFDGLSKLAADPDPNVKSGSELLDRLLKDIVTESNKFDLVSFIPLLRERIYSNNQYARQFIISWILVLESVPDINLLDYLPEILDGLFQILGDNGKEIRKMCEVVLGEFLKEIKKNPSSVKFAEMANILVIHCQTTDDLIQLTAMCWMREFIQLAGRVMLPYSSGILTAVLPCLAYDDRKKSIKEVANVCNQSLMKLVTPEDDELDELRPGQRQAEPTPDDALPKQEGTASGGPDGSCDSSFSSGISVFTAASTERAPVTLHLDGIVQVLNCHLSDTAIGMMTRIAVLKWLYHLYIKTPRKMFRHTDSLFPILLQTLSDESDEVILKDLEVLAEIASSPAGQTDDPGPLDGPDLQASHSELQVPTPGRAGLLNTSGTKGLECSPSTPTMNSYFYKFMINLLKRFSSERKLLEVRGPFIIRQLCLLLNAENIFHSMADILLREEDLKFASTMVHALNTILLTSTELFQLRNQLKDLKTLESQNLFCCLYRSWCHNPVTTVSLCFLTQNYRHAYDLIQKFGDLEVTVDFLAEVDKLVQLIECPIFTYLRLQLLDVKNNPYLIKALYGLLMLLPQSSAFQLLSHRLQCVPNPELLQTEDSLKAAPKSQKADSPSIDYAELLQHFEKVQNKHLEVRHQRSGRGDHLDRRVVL
Kind of test: cross-linking. To be noted: remark: other sources report otherwise.

B1: Myc-ArPIKfyve^WT, Q08AM6 1-782 (natural protein)
chain: MNPEKDFAPLTPNIVRALNDKLYEKRKVAALEIEKLVREFVAQNNTVQIKHVIQTLSQEFALSQHPHSRKGGLIGLAACSIALGKDSGLYLKELIEPVLTCFNDADSRLRYYACEALYNIVKVARGAVLPHFNVLFDGLSKLAADPDPNVKSGSELLDRLLKDIVTESNKFDLVSFIPLLRERIYSNNQYARQFIISWILVLESVPDINLLDYLPEILDGLFQILGDNGKEIRKMCEVVLGEFLKEIKKNPSSVKFAEMANILVIHCQTTDDLIQLTAMCWMREFIQLAGRVMLPYSSGILTAVLPCLAYDDRKKSIKEVANVCNQSLMKLVTPEDDELDELRPGQRQAEPTPDDALPKQEGTASGGPDGSCDSSFSSGISVFTAASTERAPVTLHLDGIVQVLNCHLSDTAIGMMTRIAVLKWLYHLYIKTPRKMFRHTDSLFPILLQTLSDESDEVILKDLEVLAEIASSPAGQTDDPGPLDGPDLQASHSELQVPTPGRAGLLNTSGTKGLECSPSTPTMNSYFYKFMINLLKRFSSERKLLEVRGPFIIRQLCLLLNAENIFHSMADILLREEDLKFASTMVHALNTILLTSTELFQLRNQLKDLKTLESQNLFCCLYRSWCHNPVTTVSLCFLTQNYRHAYDLIQKFGDLEVTVDFLAEVDKLVQLIECPIFTYLRLQLLDVKNNPYLIKALYGLLMLLPQSSAFQLLSHRLQCVPNPELLQTEDSLKAAPKSQKADSPSIDYAELLQHFEKVQNKHLEVRHQRSGRGDHLDRRVVL
On to B1, for which the stoichiometry N was 2 and 3.

As usually defined, the stoichiometry N is the number of molecules, sites or subunits per partner or assembly.
